Laboratory results reported in US20080176792A1, “VEGFR-1 TARGETING PEPTIDES” (priority 2000, published 2008).
Bridge positions count the residues as written; N and C are the ends. Ends that are not written are not given here.

How the values were obtained:
porcine bladder mucosa = assay: Dot blot chamber assay after removal of the GAG-layer; format: cell-based; conditions: 0.1M HCl for 2 min; relative to untreated mucosa set to 1
Method: FIG. 10. Influence of the GAG-layer on phage binding. In the dot blot chamber assay portions of a porcine bladder mucosa were treated with 0.1M HCl for 2 min prior to remove the GAG-layer. Binding to treated surface is given relative to untreated surface, that was set as 1. Bound phage were detected after intensive washing by infection with log phase K91 bacteria and plating of serial dilutions.
Removal of the glucosaminoglycan- (GAG-) layer on intact mucosa samples was performed as a dot blot chamber assay. Half of the wells were incubated with 200 μl 0.1M HCl per well for 2 min, intensely rinsed with blocking solution and both parts blocked as before. Results are given relative to fd-tet phage to untreated mucosa, that was set to 1.
Using the same assay the influence of the glucosaminoglycan (GAG) layer on binding of several phage to intact mucosa was examined. The GAG-layer was removed as described above. Half of the mucosa of human ureter and porcine bladder specimens were treated inside the dot blot chamber with […] for 2 min, extensively washed and the binding assay performed as before.

KS1767 cells = assay: BRASIL binding of phage to KS1767 cells, with synthetic peptide competition; format: cell-based; conditions: for effect of soluble peptide on RGD-4C phage binding to KS1767 cells: competition experiment
Method: FIG. 2A. BRASIL method optimization. A single-cell suspension of Kaposi sarcoma-derived cells (KS1767) was incubated with increasing titers of a phage displaying an alpha v integrin-binding motif (RGD-4C phage) or a control phage with no peptide insert (Fd phage). KS1767 cells were chosen because they express high levels of alpha v integrins. Cells and phage were incubated for 4 hours on ice (to prevent phage internalization) and centrifuged for 10 minutes at 10,000 g. The phage bound to the KS1767 cells were recovered by infection of a host E. coli, and plated in LB/tet agar plates at 37° C. overnight. Finally, the phage transducing units were counted. Extremely low backgrounds were observed. Under non-saturated conditions, a conservative mean estimate of the enrichment of RGD-4C phage in relation to Fd phage is 500-1000. This experiment was repeated three times with similar results. Mean and standard deviation are shown.
Cells were harvested with phosphate-buffered saline (PBS) and 5 mM EDTA, washed with MEM, and re-suspended in MEM containing 1% BSA at 10^6 cells/ml and incubated with phage in 1.5 ml Eppendorf tubes. After 4 h, 100 μl of the cell-phage suspension was gently transferred to the top of a non-miscible organic lower phase (200 μl in a 400 μl-Eppendorf tube) and centrifuged at 10,000 g for 10 minutes. The preferred organic phase combination consisted of a mixture of dibutyl phthalate:cyclohexane (9:1 [v/v]; ρ=1.03 g/ml). BRASIL has been attempted with other phthalate admixtures with the appropriate density (for example, dibutyl phthalate:diisooctyl phthalate; 4:6 [v/v]) with similar results. The tube was snap frozen in liquid nitrogen, the bottom of the tube sliced off, and the cell-phage pellet transferred to a new tube. Bound phage were rescued by infection with 200 μl of E. coli K91kan host bacteria in log phase. To evaluate binding specificity, phage and cells were incubated with the cognate or control synthetic peptides for competition assays.
KS1767 cells were detached with cold EDTA and re-suspended in MEM containing 1% BSA. […] The cell suspension was incubated with RGD-4C phage or a control phage with no peptide insert (fd-tet phage). Increasing amounts of either phage were added to the cells in suspension and the cell-phage admixture was incubated for 4 hr on ice. BRASIL was performed on ice to minimize post-binding events such as ligand-receptor internalization by the target cells. The cells were separated by centrifugation through the organic phase as described above. Bound phage were recovered and phage TU were counted. To compare BRASIL to conventional cell panning methods that require an additional washing step, 200 μl of the cell suspension were incubated with phage for 4 hr on ice. […]

RT4 tumor cells = assay: Phage attachment to subconfluent cell monolayer, with peptide competition; format: cell-based, human; conditions: increasing amounts of peptide
Method: A subconfluent monolayer of RT4 tumor cells was incubated with 1×10^8 T.U. of VHALES (SEQ ID NO:25) phage per well in presence of increasing amounts of VHALES (SEQ ID NO:25) and control peptide. […] Bound phage were detected after intensive washing by infection with log phase K91 bacteria and plating of serial dilutions.
All cells were grown to subconfluency in 48 well plates and free binding sites were blocked with 800 μl 30% FCS/DMEM (blocking medium) for 1 hour at 37° C. The blocking solution was then replaced by 200 μl 10% FCS/DMEM (washing medium) containing 1×10^8 cfu of each phage per well. After incubation for 2 hours at 4° C. to prevent unspecific endocytosis, unbound phage were removed by washing 7 times with 500 μl washing medium. For competition experiments increasing concentrations of the corresponding peptide or a control peptide (CARAC, SEQ ID NO:5) were added during the incubation. Bound phage were determined by infection with 500 μl log phase K91 culture and plating of serial dilutions.

human VEGFR-1 = target: T1, human VEGFR-1 (Homo sapiens, UniProt P17948); assay: Phage binding to immobilized purified receptor, with competition; conditions: for blocking of clone 19 phage binding to VEGF-R1 by competitor: competitor pre-incubated with immobilized receptor, PDGF-BB up to 200 ng/ml
T1 construct: purchased Oncogene Research Products, Boston, Mass
Method: (§1) Human VEGFR-1, human VEGFR-2, rat NRP-1, and rat NRP-2 (1 μg in 50 μl of PBS) were immobilized on microtiter well plates overnight at 4° C. The wells were washed twice with PBS, blocked with PBS containing 3% BSA for 2 h at room temperature, and then incubated with 10^9 TU of either […] (SEQ ID NO:6) phage, […] (SEQ ID NO:11) phage, or fd-tet phage in 50 μl of PBS/1.5% BSA. After 1 hr at room temperature, wells were washed nine times with PBS and phage were recovered by bacterial infection. Serial dilutions were plated onto Luria-Bertani (LB) medium supplemented with tetracycline. VEGF165, PDGF-BB, or synthetic peptides were used at the indicated concentrations and pre-incubated with the immobilized proteins to evaluate competitive inhibition of phage binding. ELISA with either polyclonal anti-VEGFR-1 serum or anti-human IgG (VEGFR-2, NRP-1, and NRP-2) confirmed the presence and concentration of the immobilized receptors on the microtiter plates. […] Following three washes, VEGF165 binding was evaluated by ELISA by using anti-VEGF specific antibodies (data not shown).

rat NRP-1 = target: T2, rat NRP-1 (Rattus norvegicus, UniProt Q9QWJ9); assay: as above; conditions: competitor pre-incubated with immobilized receptor; PDGF-BB up to 200 ng/ml
T2 construct: purchased R&D Systems Minneapolis, Minn
Method: as §1

[1] = target: alpha v integrins on KS1767 cells (Kaposi sarcoma-derived cell line) (UniProt P06756); assay: BRASIL, phage on KS1767 cells in suspension, transducing units recovered
recombinant rat NRP-1/Fc = target: T3, recombinant rat NRP-1/Fc (rat; human, UniProt Q9QWJ9 22-854, limits assumed); assay: competition of clone-19 phage binding to immobilized NRP-1 (not shown)
T3 construct: Bought receptor/Fc chimera; also called rat Neuropilin-1; neuropilin-1; not shown: Fc region of human IgG1
T3 sequence (looked up): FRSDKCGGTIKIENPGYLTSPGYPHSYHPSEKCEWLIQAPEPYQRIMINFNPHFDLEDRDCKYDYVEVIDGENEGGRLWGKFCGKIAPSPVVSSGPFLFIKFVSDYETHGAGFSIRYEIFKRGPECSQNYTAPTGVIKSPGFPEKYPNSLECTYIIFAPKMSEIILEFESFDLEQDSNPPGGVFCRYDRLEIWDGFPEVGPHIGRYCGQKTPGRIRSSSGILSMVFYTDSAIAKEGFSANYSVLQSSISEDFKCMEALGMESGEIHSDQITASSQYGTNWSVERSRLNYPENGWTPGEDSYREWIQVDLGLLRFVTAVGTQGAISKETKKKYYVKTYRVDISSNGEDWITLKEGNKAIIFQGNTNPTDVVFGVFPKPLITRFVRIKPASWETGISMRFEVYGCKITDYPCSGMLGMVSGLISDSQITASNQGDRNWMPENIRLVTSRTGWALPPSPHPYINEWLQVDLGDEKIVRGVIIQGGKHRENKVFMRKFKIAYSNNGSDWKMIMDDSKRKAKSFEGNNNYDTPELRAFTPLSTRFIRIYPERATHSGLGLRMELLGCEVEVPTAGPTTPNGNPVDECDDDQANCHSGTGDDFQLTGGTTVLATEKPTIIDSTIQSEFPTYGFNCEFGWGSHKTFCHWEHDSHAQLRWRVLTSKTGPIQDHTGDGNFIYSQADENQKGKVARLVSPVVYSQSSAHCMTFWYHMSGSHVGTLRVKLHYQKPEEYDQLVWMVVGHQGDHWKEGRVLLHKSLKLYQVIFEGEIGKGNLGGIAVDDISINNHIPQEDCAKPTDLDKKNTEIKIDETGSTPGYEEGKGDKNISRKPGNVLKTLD
Method: (§2) Human VEGFR-1, human VEGFR-2, rat NRP-1, and rat NRP-2 (1 μg in 50 μl of PBS) were immobilized on microtiter well plates overnight at 4° C. The wells were washed twice with PBS, blocked with PBS containing 3% BSA for 2 h at room temperature, and then incubated with 10⁹ TU of either […] […] (SEQ ID NO:11) phage, or fd-tet phage in 50 μl of PBS/1.5% BSA. After 1 hr at room temperature, wells were washed nine times with PBS and phage were recovered by bacterial infection. Serial dilutions were plated onto Luria-Bertani (LB) medium supplemented with tetracycline. VEGF₁₆₅, PDGF-BB, or synthetic peptides were used at the indicated concentrations and pre-incubated with the immobilized proteins to evaluate competitive inhibition of phage binding.

[2] = target: T4, recombinant human VEGFR-1 (human, UniProt P17948 27-758, limits assumed); assay: competition of clone-19 phage binding to immobilized receptors; reference is NRP-1 (not shown)
T4 construct: Bought; immobilized on microtiter wells (1 ug in 50 ul PBS); also called Flt1
Method: as §2

[3] = target: alpha v integrins on KS1767 cells (Kaposi sarcoma-derived cell line) (UniProt P06756); assay: BRASIL on KS1767 cells, competition with peptide in solution

T1 sequence (P17948 27-1338): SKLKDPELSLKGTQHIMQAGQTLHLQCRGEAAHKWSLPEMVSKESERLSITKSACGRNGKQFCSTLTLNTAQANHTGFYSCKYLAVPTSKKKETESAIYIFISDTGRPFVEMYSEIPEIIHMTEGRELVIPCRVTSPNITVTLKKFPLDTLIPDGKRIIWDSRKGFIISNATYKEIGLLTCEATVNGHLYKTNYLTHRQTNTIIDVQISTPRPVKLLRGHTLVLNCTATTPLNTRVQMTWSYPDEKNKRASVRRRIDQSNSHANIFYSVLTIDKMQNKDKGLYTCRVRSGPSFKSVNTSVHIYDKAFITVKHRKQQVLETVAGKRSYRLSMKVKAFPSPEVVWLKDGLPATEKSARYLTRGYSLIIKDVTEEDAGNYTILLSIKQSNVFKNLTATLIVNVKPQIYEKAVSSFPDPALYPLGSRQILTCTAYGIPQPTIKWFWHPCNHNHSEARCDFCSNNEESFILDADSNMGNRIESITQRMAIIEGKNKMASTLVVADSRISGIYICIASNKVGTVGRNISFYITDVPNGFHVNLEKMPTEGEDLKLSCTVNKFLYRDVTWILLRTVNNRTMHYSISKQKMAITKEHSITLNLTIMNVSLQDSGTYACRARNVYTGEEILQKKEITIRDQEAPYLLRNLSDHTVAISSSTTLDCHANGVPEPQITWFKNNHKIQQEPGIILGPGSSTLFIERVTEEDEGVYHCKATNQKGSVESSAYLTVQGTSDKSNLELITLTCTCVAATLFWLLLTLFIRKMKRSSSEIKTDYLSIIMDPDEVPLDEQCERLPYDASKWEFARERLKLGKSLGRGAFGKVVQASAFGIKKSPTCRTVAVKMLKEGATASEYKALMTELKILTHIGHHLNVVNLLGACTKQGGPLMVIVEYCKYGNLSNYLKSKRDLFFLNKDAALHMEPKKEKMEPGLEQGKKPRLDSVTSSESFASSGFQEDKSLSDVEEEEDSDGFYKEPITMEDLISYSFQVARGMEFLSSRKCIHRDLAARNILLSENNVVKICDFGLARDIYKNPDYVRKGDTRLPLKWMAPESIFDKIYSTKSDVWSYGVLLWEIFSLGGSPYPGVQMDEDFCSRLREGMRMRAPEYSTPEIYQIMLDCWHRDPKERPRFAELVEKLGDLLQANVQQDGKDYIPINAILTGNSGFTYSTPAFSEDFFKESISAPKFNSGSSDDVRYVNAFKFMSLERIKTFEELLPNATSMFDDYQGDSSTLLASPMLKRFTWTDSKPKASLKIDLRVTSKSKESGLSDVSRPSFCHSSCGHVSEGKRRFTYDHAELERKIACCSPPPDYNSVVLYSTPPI
Chain of alpha v integrins on KS1767 cells (Kaposi sarcoma-derived cell line) (P06756 31-1048): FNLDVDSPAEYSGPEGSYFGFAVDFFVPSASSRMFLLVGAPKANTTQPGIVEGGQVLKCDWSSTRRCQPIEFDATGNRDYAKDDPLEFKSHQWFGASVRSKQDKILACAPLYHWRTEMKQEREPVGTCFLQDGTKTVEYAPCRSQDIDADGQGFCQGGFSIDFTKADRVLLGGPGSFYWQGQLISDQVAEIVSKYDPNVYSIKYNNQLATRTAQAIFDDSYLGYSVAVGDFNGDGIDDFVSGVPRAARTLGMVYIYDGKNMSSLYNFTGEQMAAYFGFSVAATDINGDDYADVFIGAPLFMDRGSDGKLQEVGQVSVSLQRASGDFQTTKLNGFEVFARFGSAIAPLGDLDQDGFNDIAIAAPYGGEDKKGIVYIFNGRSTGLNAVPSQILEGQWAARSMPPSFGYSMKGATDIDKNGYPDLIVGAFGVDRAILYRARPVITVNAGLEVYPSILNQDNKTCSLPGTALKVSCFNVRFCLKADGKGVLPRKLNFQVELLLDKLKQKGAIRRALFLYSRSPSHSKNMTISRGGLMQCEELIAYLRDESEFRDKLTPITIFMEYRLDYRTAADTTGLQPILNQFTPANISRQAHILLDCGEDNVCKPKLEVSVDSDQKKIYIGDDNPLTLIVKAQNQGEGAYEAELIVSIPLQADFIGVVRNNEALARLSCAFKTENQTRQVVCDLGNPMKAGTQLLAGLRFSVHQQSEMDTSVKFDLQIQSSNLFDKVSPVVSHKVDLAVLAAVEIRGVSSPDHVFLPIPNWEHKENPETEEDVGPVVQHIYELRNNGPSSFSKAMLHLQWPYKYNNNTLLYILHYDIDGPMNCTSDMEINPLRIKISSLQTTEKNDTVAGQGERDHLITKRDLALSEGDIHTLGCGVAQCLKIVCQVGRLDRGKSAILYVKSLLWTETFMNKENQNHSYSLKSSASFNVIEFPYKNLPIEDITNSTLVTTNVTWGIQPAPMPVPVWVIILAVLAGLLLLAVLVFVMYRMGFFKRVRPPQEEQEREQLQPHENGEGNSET
T2 sequence (Q9QWJ9 with tags, fused parts or gaps limits assumed): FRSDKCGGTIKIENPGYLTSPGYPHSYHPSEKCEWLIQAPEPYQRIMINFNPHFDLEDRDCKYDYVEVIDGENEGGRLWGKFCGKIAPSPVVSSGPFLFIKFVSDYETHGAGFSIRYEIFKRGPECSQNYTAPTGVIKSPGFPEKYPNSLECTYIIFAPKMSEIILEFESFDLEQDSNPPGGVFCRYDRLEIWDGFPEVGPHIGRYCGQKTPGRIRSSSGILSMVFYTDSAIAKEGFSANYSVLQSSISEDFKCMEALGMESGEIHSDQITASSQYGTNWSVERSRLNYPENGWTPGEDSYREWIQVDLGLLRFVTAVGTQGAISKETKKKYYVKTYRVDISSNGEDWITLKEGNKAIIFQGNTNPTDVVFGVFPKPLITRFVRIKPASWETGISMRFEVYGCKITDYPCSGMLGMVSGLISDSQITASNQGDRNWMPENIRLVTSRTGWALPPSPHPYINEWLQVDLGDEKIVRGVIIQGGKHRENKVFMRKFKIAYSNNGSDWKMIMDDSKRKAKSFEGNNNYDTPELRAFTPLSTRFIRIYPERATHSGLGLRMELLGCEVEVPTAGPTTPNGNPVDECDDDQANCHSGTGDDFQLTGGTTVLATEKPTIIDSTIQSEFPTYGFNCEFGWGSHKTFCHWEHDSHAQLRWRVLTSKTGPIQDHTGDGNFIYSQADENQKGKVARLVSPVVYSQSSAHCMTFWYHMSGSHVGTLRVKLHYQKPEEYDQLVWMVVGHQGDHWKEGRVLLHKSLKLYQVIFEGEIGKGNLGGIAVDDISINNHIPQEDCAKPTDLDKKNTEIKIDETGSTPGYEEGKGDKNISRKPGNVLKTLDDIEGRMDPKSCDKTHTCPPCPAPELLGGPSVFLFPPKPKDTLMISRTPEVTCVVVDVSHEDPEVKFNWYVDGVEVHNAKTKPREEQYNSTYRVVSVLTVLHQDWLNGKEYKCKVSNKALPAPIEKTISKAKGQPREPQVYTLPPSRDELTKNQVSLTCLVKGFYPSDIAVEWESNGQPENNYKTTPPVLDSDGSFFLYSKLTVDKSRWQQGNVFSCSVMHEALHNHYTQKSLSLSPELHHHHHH
T4 sequence (P17948 27-758 limits assumed): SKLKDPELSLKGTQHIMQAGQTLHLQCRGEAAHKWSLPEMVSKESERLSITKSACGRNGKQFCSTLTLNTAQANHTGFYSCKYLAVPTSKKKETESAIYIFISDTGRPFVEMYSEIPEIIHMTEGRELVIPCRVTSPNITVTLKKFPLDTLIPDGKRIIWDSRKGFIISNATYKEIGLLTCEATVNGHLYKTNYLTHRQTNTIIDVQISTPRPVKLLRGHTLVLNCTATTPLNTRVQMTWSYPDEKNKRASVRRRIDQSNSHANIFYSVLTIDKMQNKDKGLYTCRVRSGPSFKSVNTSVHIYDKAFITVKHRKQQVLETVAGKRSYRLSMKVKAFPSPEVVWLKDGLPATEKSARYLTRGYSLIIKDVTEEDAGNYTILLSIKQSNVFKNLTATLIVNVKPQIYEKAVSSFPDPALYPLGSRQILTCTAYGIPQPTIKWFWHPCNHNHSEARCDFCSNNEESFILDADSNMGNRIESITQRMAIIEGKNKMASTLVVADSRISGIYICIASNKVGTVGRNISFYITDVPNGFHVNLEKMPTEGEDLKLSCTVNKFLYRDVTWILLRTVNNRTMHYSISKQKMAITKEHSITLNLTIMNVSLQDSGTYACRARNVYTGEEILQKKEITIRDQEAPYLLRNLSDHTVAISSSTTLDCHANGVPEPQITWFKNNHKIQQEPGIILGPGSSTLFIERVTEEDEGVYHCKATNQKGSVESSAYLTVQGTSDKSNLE

CRIRMSAGC
change of phage binding after GAG-removal (porcine bladder mucosa): unchanged

O=c1[nH]cc(F)c(=O)[nH]1 [CARAC, reference compound]
effect of soluble peptide on RGD-4C phage binding to KS1767 cells (KS1767 cells): no effect
effect of peptide on VHALES phage binding to RT4 tumor cells (RT4 tumor cells): unchanged and not

CPQPRPLC
efficiency in blocking phage binding to VEGF-R1 relative to NRP-1 (human VEGFR-1; clone 19 phage, VEGF-R1 versus NRP-1): approximately 100 fold
blocking of clone 19 phage binding to VEGF-R1 by competitor (human VEGFR-1): blocked
blocking of clone 19 phage binding to NRP-1 by competitor (rat NRP-1): blocked

CDCRGDCFC [RGD-4C peptide]
effect of soluble peptide on RGD-4C phage binding to KS1767 cells (KS1767 cells): completely inhibited
inhibition of RGD-4C phage binding to KS1767 cells (KS1767 cells; synthetic peptide in solution): 99.99%

VHALES [VHALES peptide]
effect of peptide on VHALES phage binding to RT4 tumor cells (RT4 tumor cells): reduced
effect of peptide on VHALES phage binding to RT4 tumor cells (RT4 tumor cells; listed as VHALE): inhibited

GRGESP
effect of soluble peptide on RGD-4C phage binding to KS1767 cells (KS1767 cells): no effect

RGD-4C phage (peptide)
enrichment in relation to Fd phage [1]: 500 to 1000 fold
ratio of RGD4C to Fd phage recovered (enrichment) [1]: 100 to 500 fold

PDGF-BB: PDGF-BB obtained commercially (R&D Systems) [reference compound]
blocking of clone 19 phage binding to VEGF-R1 by competitor (human VEGFR-1): not
blocking of clone 19 phage binding to NRP-1 by competitor (rat NRP-1): not

CPQPRPLC (disulfide 1-8 (inferred)) [synthetic cognate peptide CPQPRPLC (SEQ ID NO:6)]
binding result (recombinant rat NRP-1/Fc): binds
fold efficiency in blocking phage binding, VEGF-R1 against NRP-1 [2]: ~100 fold

B1: synthetic RGD-4C peptide, containing the targeting sequence … (SEQ ID NO:9) (peptide)
peptide: CDCRGDCFC
modifications: disulfide (positions not given here); not fully specified; also: cyclized, bonds not given here
percent inhibition of RGD-4C phage binding [3]: 100%
